These results are taken from patent US20240083996A1, “COMPOSITION FOR PROPHYLAXIS OR TREATMENT OF IL-8 RELATED DISEASES” (Chugai Seiyaku Kabushiki Kaisha, priority 2016, published 2024).

The subject of one data set is cystic fibrosis. Conditions: J Cyst Fibros. 2013; cited from earlier work.
A further data set relates to COPD. The settings on record: Am J Respir Crit Care Med. 2015; worsened in the placebo group; cited from earlier work.
For data set [1] the following is noted: known values for commercially available antibodies (FIG. 19); cited from earlier work.
In data set [2] the test system is soluble forms of FcγRIa and FcγRIIIa in human and cynomolgus monkey. Kind of data set: Binding to various FcγRs (BIACORE T200). Conditions: 20° C., HBS-EP+ (FIG. 27). The protocol:
Soluble FcγRIa and FcγRIIIa in both human and cynomolgus monkey were produced in the form of His-tagged molecules by methods known to those of ordinary skill in the art. […] Next, soluble FcγRIa or FcγRIIIa was injected with a running buffer (used as a reference solution), and was made to interact with the antibodies captured onto the sensor chip. HBS-EP+ (GE Healthcare) was used as the running buffer, and HBS-EP+ was also used to dilute the soluble FcγRIa or FcγRIIIa. […] All measurements were carried out at 20° C.

As to `O=C(Nc1ccc(Cl)c(S(=O)(=O)N2CCNCC2)c1O)Nc1cccc(F)c1Cl` [Elubrixin], in the data set with cystic fibrosis, the “topical neutrophil migration in cystic fibrosis” value is “Topical neutrophil migration was observed to be suppressed”.

For the molecule `CC[C@@H](Nc1c(Nc2cccc(C(=O)N(C)C)c2O)c(=O)c1=O)c1ccc(C)o1` [MK7123], in the data set with COPD, the “pulmonary function (FEV1) in COPD patients” value is “pulmonary function (FEV1) was improved in the active drug group”.

Turning to Alemtuzumab [Campath], the “frequency of ADA development in humans” value in data set [1] is listed as 45%.

As for Daclizumab [Zenapax], the “frequency of ADA development in humans” value in data set [1] is given as 14%.

B1: H1009/L395-F1886m: variable region of H1009/L395 with Fc variant F1886m (antibody)
heavy: QVQLVESGGGLVQPGGSLRLSCAASGFTFSDYYLSWVRQAPGKGLEWVGLIRNKDNYHTPEYSASVKGRFTISRDDSKNSLYLTMSDLKTEDTAVYYCARENHRYDVELAYWGQGTLVTVSSASTKGPSVFPLAPSSKSTSGGTAALGCLVKDYFPEPVTVSWNSGALTSGVHTFPAVLQSSGLYSLSSVVTVPSSSLGTQTYICNVNHKPSNTKVDKKVEPKSCDKTHTCPPCPAPELLGGPSVFLFPPKPKDTLMISRTPEVTCVVVDVSHEDPEVKFNWYVDGVEVHNAKTKPREEQYNSTYRVVSVLTVLHQDWLNGKEYKCKVSNKALPAPIEKTISKAKGQPREPQVYTLPPSREEMTKNQVSLTCLVKGFYPSDIAVEWESNGQPENNYKTTPPVLDSDGSFFLYSKLTVDKSRWQQGNVFSCSVLHEALHAHTTRKELSLSP
light: DIQMTQSPSSLSASVGDRVTITCRASEIIYSYLAWYQQKPGKAPKLLIYKAKTHADGVPSRFSGSGSGTDFTFTISSLQPEDIATYYCKHHFGFPRTFGQGTKVEIKRTVAAPSVFIFPPSDEQLKSGTASVVCLLNNFYPREAKVQWKVDNALQSGNSQESVTEQDSKDSTYSLSSTLTLSKADYEKHKVYACEVTHQGLSSPVTKSFNRGEC
In the case of B1, in data set [2], the “binding to FcγRs (hFcγRIa, hFcγRIIIa, cynoFcγRIa, cynoFcγRIIIa)” value is “bind to all FcγRs”.
